# Test results published in patent US20260294251A1, “Method for Medical Imaging” (Integro Theranositcs, LLC, priority 2023, published 2026).
# Read-outs that look alike come from different tables or passages of the source. Positions of bridges follow the written chain, without caps; N, C: chain ends. Non-standard residues stand in square brackets, D forms with d. Residues, ends and D or L forms follow the SMILES beside them. *: point of attachment. X1 = CC1(C)C(/C=C/C=C/C=C/C=C2/N(CCC(=O)*)c3ccc4ccccc4c3C2(C)C)=[N+](CCC(=O)[O-])c2ccc3ccccc3c21
# How the values were obtained:
# male rats = experiment: In-vivo safety pharmacology (functional observation battery) in male rats; set-up: species or system rat
# Excerpt: (§1) Results from safety pharmacology studies further support the potential safety of L301 and LS301-IT.
# rats = experiment: Single IV dose toxicity study in rats; format: in vivo, rat
# Excerpt: (§2) Therefore, the changes were considered non-adverse.
# [1] = Single IV dose toxicity study in rats; format: in vivo, rat; conditions: rat, in vivo, iv; for selectivity ratio: starting dose 0.025 mg/kg, read-out: safety margin
# Excerpt: as §2
# tumors [2] = experiment: Proof of concept imaging and biodistribution in mice after single IV delivery
# [3] = Pharmacokinetics in the rat after single IV delivery
# Excerpt: (§4) Appropriate bioanalytical methods were developed and validated to measure LS301 concentrations in rat plasma (LC-MS/MS) and various dosing formulations (HPLC-UV, UPLC) per good laboratory practice (GLP) regulations.
# [4] = test system: Salmonella typhimurium (TA100, TA1535, TA98, TA1537) and Escherichia coli (WP2uvrA); experiment: GLP bacterial mutagenicity (Ames) test; format: cell-based; conditions: doses up to 1000 μg/plate; previous study
# Method: (§3) LS301 was negative for inducing structural/numerical chromosomal aberrations in Wolff-Bloom-Litton Chinese hamster ovary (CHO-WBL) cells with and without an S9 activation system. In a previous study, the potential for LS301 to cause genotoxicity was evaluated in a GLP bacterial mutagenicity (Ames) test in 4 strains of Salmonella typhimurium (TA100, TA1535, TA98, TA1537) and Escherichia coli (WP2uvrA) at doses up to 1000 μg/plate. The results were negative for LS301 mutagenicity.
# [5] = test system: respiratory system functional parameters; experiment: Respiratory safety pharmacology after single IV administration; format: in vivo, Sprague-Dawley rats; conditions: single IV up to 20 mg/kg, up to 24 hours
# Excerpt: as §1
# [6] = target: human Ether-à-go-go related gene (hERG) (Homo sapiens, UniProt Q12809); experiment: human Ether-à-go-go related gene (hERG) assay; format: cell-based
# human Ether-à-go-go related gene (hERG), sequence (Q12809 whole entry): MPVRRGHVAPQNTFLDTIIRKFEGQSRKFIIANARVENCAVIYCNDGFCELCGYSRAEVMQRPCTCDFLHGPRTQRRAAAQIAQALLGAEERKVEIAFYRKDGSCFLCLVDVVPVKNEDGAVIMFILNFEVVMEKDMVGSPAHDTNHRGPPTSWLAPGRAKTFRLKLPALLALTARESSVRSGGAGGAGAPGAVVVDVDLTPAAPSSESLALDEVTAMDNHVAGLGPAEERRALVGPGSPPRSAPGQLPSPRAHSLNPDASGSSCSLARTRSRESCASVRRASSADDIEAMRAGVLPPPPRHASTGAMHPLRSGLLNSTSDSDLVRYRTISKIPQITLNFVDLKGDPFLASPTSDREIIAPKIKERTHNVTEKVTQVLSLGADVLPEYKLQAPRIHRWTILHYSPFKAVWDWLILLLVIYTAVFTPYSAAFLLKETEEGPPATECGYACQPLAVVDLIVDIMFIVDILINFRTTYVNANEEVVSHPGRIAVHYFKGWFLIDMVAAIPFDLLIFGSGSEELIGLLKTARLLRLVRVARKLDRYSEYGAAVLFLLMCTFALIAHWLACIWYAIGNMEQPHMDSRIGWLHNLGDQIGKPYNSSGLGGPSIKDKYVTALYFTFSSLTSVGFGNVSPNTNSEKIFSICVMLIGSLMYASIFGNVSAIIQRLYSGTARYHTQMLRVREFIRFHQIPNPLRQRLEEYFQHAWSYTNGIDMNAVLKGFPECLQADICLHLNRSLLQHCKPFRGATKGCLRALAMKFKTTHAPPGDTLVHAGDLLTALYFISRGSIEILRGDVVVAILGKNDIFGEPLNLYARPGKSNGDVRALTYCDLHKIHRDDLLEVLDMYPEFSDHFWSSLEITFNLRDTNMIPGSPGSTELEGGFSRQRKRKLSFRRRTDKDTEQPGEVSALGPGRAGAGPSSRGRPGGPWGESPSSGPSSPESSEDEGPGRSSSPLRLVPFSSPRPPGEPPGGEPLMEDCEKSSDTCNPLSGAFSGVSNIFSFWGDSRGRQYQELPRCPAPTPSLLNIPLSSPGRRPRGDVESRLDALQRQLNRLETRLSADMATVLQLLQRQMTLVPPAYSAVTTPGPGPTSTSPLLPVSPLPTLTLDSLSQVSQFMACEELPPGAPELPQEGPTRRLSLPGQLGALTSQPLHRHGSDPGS
# Excerpt: as §1
# tumors [7] = conditions: mouse, in vivo, iv
# [8] = rat, in vivo, iv
# Excerpt: as §4
# [9] = Toxicokinetics at the NOAEL in the rat toxicity study; format: in vivo; conditions: plasma, iv, 20 mg/kg, Day 1, at NOAEL 20 mg/kg; for AUC(0-t) at 48 h: read-out: AUC0-48h; for C0: read-out: Co
# Method: In this study, the NOAEL was considered 20 mg/kg. The corresponding AUC0-48h and Co of LS301 at the established NOAEL on Day 1 were 14200 h*ng/ml and 69900 ng/mL for males and 14900 h*ng/mL and 98800 ng/mL for females, respectively. Therefore, the NOAEL of 20 mg/kg is equivalent to a 3.226 mg/kg human dose.
# [10] = test system: Wolff-Bloom-Litton Chinese hamster ovary (CHO-WBL) cells; experiment: Chromosomal aberration test in CHO-WBL cells; format: cell-based; conditions: with and without an S9 activation system
# Method: as §3
# cardiovascular function = experiment: Cardiovascular safety pharmacology after single IV administration; format: in vivo, rat; conditions: rats, single IV up to 20 mg/kg, up to 24 hours
# Excerpt: as §1
# [11] = test system: mouse breast cancer model; conditions: in vivo, iv
compound,measurement,setting,value
"CC1(C)C(/C=C/C=C/C=C/C=C2/N(CCC(=O)N[C@@H]3CSSC[C@@H](C(=O)N[C@@H](CCCCN)C(=O)O)NC(=O)[C@@H]4CCCN4C(=O)[C@H](CO)NC(=O)[C@H](CC(=O)O)NC(=O)[C@H](CCCNC(=N)N)NC(=O)CNC3=O)c3ccc4ccccc4c3C2(C)C)=[N+](CCC(=O)[O-])c2ccc3ccccc3c21 [LS301, cypate-cyclo(Cys-Gly-Arg-Asp-Ser-Pro-Cys)-Lys-OH] (X1-[dC]GRDSPCK-OH; disulfide 1-7)",mortality,"male rats; male rats, up to 20 mg/kg",No mortalities
same,functional observation battery (FOB) parameters,"male rats; male rats, up to 20 mg/kg, motor activity, behavior, coordination, reflexes, body temperature",no effects
same,discoloration (green),"male rats; male rats, ≥10 mg/kg",transient LS301-related discoloration (green)
same,"effects on central nervous, cardiovascular, and respiratory functions","male rats; rats, doses up to 20 mg/kg",no significant effects
same,tolerability,"male rats; rats, doses up to 20 mg/kg",Rats tolerated LS301 well
same,"mortalities or changes in body weight, food consumption, ophthalmology, hematology, coagulation, and urinalysis","rats; rats, up to 20 mg/kg LS301",no mortalities or test article-related changes
same,tolerability,"rats; rats, up to 20 mg/kg LS301",tolerated LS301 and LS301-IT well
same,resolution of discoloration,"rats; ≥10 mg/kg, rat toxicity study",resolved on Day 15
same,NOAEL,"[1]; correction factor of 0.88, read-out: corrected NOAEL",17.6 mg/kg
same,NOAEL,"[1]; single IV, read-out: NOAEL",20 mg/kg
same,selectivity ratio,[1]; NOAEL 20 mg/kg,129
same,selectivity ratio,[1]; corrected NOAEL 17.6 mg/kg,114
same,accumulation in other tissues,tumors [2],"accumulated in other tissues, especially the excretory organs of the liver and kidneys"
same,binding and accumulation in tumors,tumors [2],could bind and accumulate in tumors
same,tumor-to-background ratio,tumors [2]; four hours post-injection,clear tumor-to-background ratio
same,half-life,[3]; rat,fewer than five hours
same,systemic exposure versus dose,[3]; rat,increased proportionally with dose
same,difference in systemic exposure between male and female,[3]; rats,No differences were seen
same,mutagenicity (Ames),[4],negative
same,"respiratory system functional parameters (tidal volume, respiratory rate, derived minute volume)",[5],did not affect respiratory system functional parameters
same,IC50,[6],> 9.98 µM
same,tumor uptake (biodistribution),tumors [7],high uptake in tumors
same,tissue distribution,[8],widely distributed to tissues
same,volume of distribution,[8],greater than the total volume of body water in humans
same,AUC(0-t) at 48 h,[9]; females,14900 ng·h/mL
same,C0,[9]; females,98.8 µg/mL
same,AUC(0-t) at 48 h,[9]; males,14200 ng·h/mL
same,C0,[9]; males,69.9 µg/mL
same,structural/numerical chromosomal aberrations,[10],negative
same,cardiovascular function,cardiovascular function,did not affect cardiovascular function
same,tissue distribution,[11],"distributes and accumulates in tumor and non-tumor tissues, especially the liver and kidneys"
